Experimental findings from the supplement of paper PMC12338614 are described below.

To fix the notation:
B1: library; numbered along this chain (parent)
chain: MEVVDPQQLGMFTEGELMSVGMDTFIHRIDSTEVIYQPRRKRAKLIGKYLMGDLLGEGSYGKVKEVLDSETLCRRAVKILKKKKLRRIPNGEANVKKEIQLLRRLRHKNVIQLVDVLYNEEKQKMYMVMEYCVCGMQEMLDSVPEKRFPVCQAHGYFCQLIDGLEYLHSQGIVHKDIKPGNLLLTTGGTLKISDLGVAEALHPFAADDTCRTSQGSPAFQPPEIANGLDTFSGFKVDIWSAGVTLYNITTGLYPFEGDNIYKLFENIGKGSYAIPGDCGPPLSDLLKGMLEYEPAKRFSIRQIRQHSWFRKKHPPAEAPVPIPPSPDTKDRWRSMTVVPYLEDLHGADEDEDLFDIEDDIIYTQDFTVPGQVPEEEASHNGQRRGLPKAVCMNGTEAAQLSTKSRAEGRAPNPARKACSASSKIRRLSACKQQ

± gives the uncertainty stated by the source.

The variants in this series derive from B1. Kind of series: STK11 functional score (HeLa growth suppression), rescaled enrichment; synonymous median = 1, nonsense median = 0 (normalised score). Conditions: with HeLa; variant type: missense. Put shortly:
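HeLa cells carrying an AAVS1 landing pad received codon-optimised STK11 libraries made by codon randomisation (POPCode), integrated by Bxb1, with three regions each transfected three times. Integrants that were BFP-negative and mCherry-positive were sorted by FACS 4–5 days after electroporation and then grown for about two weeks. Tiled amplicons from gDNA were sequenced on NextSeq at ~2 million reads per tile. The functional score is a wild-type-corrected log ratio of post- to pre-selection counts, rescaled to the synonymous and nonsense medians, merged across codons and replicate transfections, and given a bootstrapped error.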
Turning to MEVVDPQQLGMFTEGELMSVGMDTFIHRIDSTEVIYQPRRKRAKLIGKYLMGDLLGEGSYGKVKEVLDSETLCRRAVKILKKKKLRRIPNGEANVKKEIQLLRRLRHKNVIQLVDVLYNEEKQKMYMVMEYCVCGMQEMLDSVPEKRFPVCQAHGYFCQLIDGLEYLHSQGIVHKDIKPGNLLLTTGGTLKISDLGVAEALHPYAADDTCRTSQGSPAFQPPEIANGLDTFSGFKVDIWSAGVTLYNITTGLYPFEGDNIYKLFENIGKGSYAIPGDCGPPLSDLLKGMLEYEPAKRFSIRQIRQHSWFRKKHPPAEAPVPIPPSPDTKDRWRSMTVVPYLEDLHGADEDEDLFDIEDDIIYTQDFTVPGQVPEEEASHNGQRRGLPKAVCMNGTEAAQLSTKSRAEGRAPNPARKACSASSKIRRLSACKQQ [F204Y], the STK11 functional score is 0.593 ± 0.2.
MEVVDPQQLGMFTEGELMSVGMDTFIHRIDSTEVIYQPRRKRAKLIGKYLMGDLLGEGSYGKVKEVLDSETLCRRAVKILKKKKLRRIPNGEANVKKEIQLLRRLRHKNVIQLVDVLYNEEKQKMYMVMEYCVCGMQEMLDSVPEKRFPVCQAHGYFCQLIDGLEYLHSQGIVHKDIKPGNLLLTTGGTLKISDLGVAEALHPFDADDTCRTSQGSPAFQPPEIANGLDTFSGFKVDIWSAGVTLYNITTGLYPFEGDNIYKLFENIGKGSYAIPGDCGPPLSDLLKGMLEYEPAKRFSIRQIRQHSWFRKKHPPAEAPVPIPPSPDTKDRWRSMTVVPYLEDLHGADEDEDLFDIEDDIIYTQDFTVPGQVPEEEASHNGQRRGLPKAVCMNGTEAAQLSTKSRAEGRAPNPARKACSASSKIRRLSACKQQ [A205D]: the STK11 functional score is 1.33 ± 0.46.
Then MEVVDPQQLGMFTEGELMSVGMDTFIHRIDSTEVIYQPRRKRAKLIGKYLMGDLLGEGSYGKVKEVLDSETLCRRAVKILKKKKLRRIPNGEANVKKEIQLLRRLRHKNVIQLVDVLYNEEKQKMYMVMEYCVCGMQEMLDSVPEKRFPVCQAHGYFCQLIDGLEYLHSQGIVHKDIKPGNLLLTTGGTLKISDLGVAEALHPFRADDTCRTSQGSPAFQPPEIANGLDTFSGFKVDIWSAGVTLYNITTGLYPFEGDNIYKLFENIGKGSYAIPGDCGPPLSDLLKGMLEYEPAKRFSIRQIRQHSWFRKKHPPAEAPVPIPPSPDTKDRWRSMTVVPYLEDLHGADEDEDLFDIEDDIIYTQDFTVPGQVPEEEASHNGQRRGLPKAVCMNGTEAAQLSTKSRAEGRAPNPARKACSASSKIRRLSACKQQ [A205R], with 1.23 ± 0.32.
Then MEVVDPQQLGMFTEGELMSVGMDTFIHRIDSTEVIYQPRRKRAKLIGKYLMGDLLGEGSYGKVKEVLDSETLCRRAVKILKKKKLRRIPNGEANVKKEIQLLRRLRHKNVIQLVDVLYNEEKQKMYMVMEYCVCGMQEMLDSVPEKRFPVCQAHGYFCQLIDGLEYLHSQGIVHKDIKPGNLLLTTGGTLKISDLGVAEALHPFFADDTCRTSQGSPAFQPPEIANGLDTFSGFKVDIWSAGVTLYNITTGLYPFEGDNIYKLFENIGKGSYAIPGDCGPPLSDLLKGMLEYEPAKRFSIRQIRQHSWFRKKHPPAEAPVPIPPSPDTKDRWRSMTVVPYLEDLHGADEDEDLFDIEDDIIYTQDFTVPGQVPEEEASHNGQRRGLPKAVCMNGTEAAQLSTKSRAEGRAPNPARKACSASSKIRRLSACKQQ [A205F], with 1.35 ± 0.2.
As to MEVVDPQQLGMFTEGELMSVGMDTFIHRIDSTEVIYQPRRKRAKLIGKYLMGDLLGEGSYGKVKEVLDSETLCRRAVKILKKKKLRRIPNGEANVKKEIQLLRRLRHKNVIQLVDVLYNEEKQKMYMVMEYCVCGMQEMLDSVPEKRFPVCQAHGYFCQLIDGLEYLHSQGIVHKDIKPGNLLLTTGGTLKISDLGVAEALHPFSADDTCRTSQGSPAFQPPEIANGLDTFSGFKVDIWSAGVTLYNITTGLYPFEGDNIYKLFENIGKGSYAIPGDCGPPLSDLLKGMLEYEPAKRFSIRQIRQHSWFRKKHPPAEAPVPIPPSPDTKDRWRSMTVVPYLEDLHGADEDEDLFDIEDDIIYTQDFTVPGQVPEEEASHNGQRRGLPKAVCMNGTEAAQLSTKSRAEGRAPNPARKACSASSKIRRLSACKQQ [A205S], the STK11 functional score is 1.18 ± 0.34.
On to MEVVDPQQLGMFTEGELMSVGMDTFIHRIDSTEVIYQPRRKRAKLIGKYLMGDLLGEGSYGKVKEVLDSETLCRRAVKILKKKKLRRIPNGEANVKKEIQLLRRLRHKNVIQLVDVLYNEEKQKMYMVMEYCVCGMQEMLDSVPEKRFPVCQAHGYFCQLIDGLEYLHSQGIVHKDIKPGNLLLTTGGTLKISDLGVAEALHPFVADDTCRTSQGSPAFQPPEIANGLDTFSGFKVDIWSAGVTLYNITTGLYPFEGDNIYKLFENIGKGSYAIPGDCGPPLSDLLKGMLEYEPAKRFSIRQIRQHSWFRKKHPPAEAPVPIPPSPDTKDRWRSMTVVPYLEDLHGADEDEDLFDIEDDIIYTQDFTVPGQVPEEEASHNGQRRGLPKAVCMNGTEAAQLSTKSRAEGRAPNPARKACSASSKIRRLSACKQQ [A205V], for which the STK11 functional score is 1.09 ± 0.32.
The figure for MEVVDPQQLGMFTEGELMSVGMDTFIHRIDSTEVIYQPRRKRAKLIGKYLMGDLLGEGSYGKVKEVLDSETLCRRAVKILKKKKLRRIPNGEANVKKEIQLLRRLRHKNVIQLVDVLYNEEKQKMYMVMEYCVCGMQEMLDSVPEKRFPVCQAHGYFCQLIDGLEYLHSQGIVHKDIKPGNLLLTTGGTLKISDLGVAEALHPFCADDTCRTSQGSPAFQPPEIANGLDTFSGFKVDIWSAGVTLYNITTGLYPFEGDNIYKLFENIGKGSYAIPGDCGPPLSDLLKGMLEYEPAKRFSIRQIRQHSWFRKKHPPAEAPVPIPPSPDTKDRWRSMTVVPYLEDLHGADEDEDLFDIEDDIIYTQDFTVPGQVPEEEASHNGQRRGLPKAVCMNGTEAAQLSTKSRAEGRAPNPARKACSASSKIRRLSACKQQ [A205C] is 1.25 ± 0.39; for MEVVDPQQLGMFTEGELMSVGMDTFIHRIDSTEVIYQPRRKRAKLIGKYLMGDLLGEGSYGKVKEVLDSETLCRRAVKILKKKKLRRIPNGEANVKKEIQLLRRLRHKNVIQLVDVLYNEEKQKMYMVMEYCVCGMQEMLDSVPEKRFPVCQAHGYFCQLIDGLEYLHSQGIVHKDIKPGNLLLTTGGTLKISDLGVAEALHPFGADDTCRTSQGSPAFQPPEIANGLDTFSGFKVDIWSAGVTLYNITTGLYPFEGDNIYKLFENIGKGSYAIPGDCGPPLSDLLKGMLEYEPAKRFSIRQIRQHSWFRKKHPPAEAPVPIPPSPDTKDRWRSMTVVPYLEDLHGADEDEDLFDIEDDIIYTQDFTVPGQVPEEEASHNGQRRGLPKAVCMNGTEAAQLSTKSRAEGRAPNPARKACSASSKIRRLSACKQQ [A205G] it is 0.712 ± 0.3; for MEVVDPQQLGMFTEGELMSVGMDTFIHRIDSTEVIYQPRRKRAKLIGKYLMGDLLGEGSYGKVKEVLDSETLCRRAVKILKKKKLRRIPNGEANVKKEIQLLRRLRHKNVIQLVDVLYNEEKQKMYMVMEYCVCGMQEMLDSVPEKRFPVCQAHGYFCQLIDGLEYLHSQGIVHKDIKPGNLLLTTGGTLKISDLGVAEALHPFPADDTCRTSQGSPAFQPPEIANGLDTFSGFKVDIWSAGVTLYNITTGLYPFEGDNIYKLFENIGKGSYAIPGDCGPPLSDLLKGMLEYEPAKRFSIRQIRQHSWFRKKHPPAEAPVPIPPSPDTKDRWRSMTVVPYLEDLHGADEDEDLFDIEDDIIYTQDFTVPGQVPEEEASHNGQRRGLPKAVCMNGTEAAQLSTKSRAEGRAPNPARKACSASSKIRRLSACKQQ [A205P] it is 0.302 ± 0.19.
On to MEVVDPQQLGMFTEGELMSVGMDTFIHRIDSTEVIYQPRRKRAKLIGKYLMGDLLGEGSYGKVKEVLDSETLCRRAVKILKKKKLRRIPNGEANVKKEIQLLRRLRHKNVIQLVDVLYNEEKQKMYMVMEYCVCGMQEMLDSVPEKRFPVCQAHGYFCQLIDGLEYLHSQGIVHKDIKPGNLLLTTGGTLKISDLGVAEALHPFQADDTCRTSQGSPAFQPPEIANGLDTFSGFKVDIWSAGVTLYNITTGLYPFEGDNIYKLFENIGKGSYAIPGDCGPPLSDLLKGMLEYEPAKRFSIRQIRQHSWFRKKHPPAEAPVPIPPSPDTKDRWRSMTVVPYLEDLHGADEDEDLFDIEDDIIYTQDFTVPGQVPEEEASHNGQRRGLPKAVCMNGTEAAQLSTKSRAEGRAPNPARKACSASSKIRRLSACKQQ [A205Q], for which the STK11 functional score amounted to 1.33 ± 0.29.
The figure for MEVVDPQQLGMFTEGELMSVGMDTFIHRIDSTEVIYQPRRKRAKLIGKYLMGDLLGEGSYGKVKEVLDSETLCRRAVKILKKKKLRRIPNGEANVKKEIQLLRRLRHKNVIQLVDVLYNEEKQKMYMVMEYCVCGMQEMLDSVPEKRFPVCQAHGYFCQLIDGLEYLHSQGIVHKDIKPGNLLLTTGGTLKISDLGVAEALHPFEADDTCRTSQGSPAFQPPEIANGLDTFSGFKVDIWSAGVTLYNITTGLYPFEGDNIYKLFENIGKGSYAIPGDCGPPLSDLLKGMLEYEPAKRFSIRQIRQHSWFRKKHPPAEAPVPIPPSPDTKDRWRSMTVVPYLEDLHGADEDEDLFDIEDDIIYTQDFTVPGQVPEEEASHNGQRRGLPKAVCMNGTEAAQLSTKSRAEGRAPNPARKACSASSKIRRLSACKQQ [A205E] is 1.64 ± 0.21.
Then MEVVDPQQLGMFTEGELMSVGMDTFIHRIDSTEVIYQPRRKRAKLIGKYLMGDLLGEGSYGKVKEVLDSETLCRRAVKILKKKKLRRIPNGEANVKKEIQLLRRLRHKNVIQLVDVLYNEEKQKMYMVMEYCVCGMQEMLDSVPEKRFPVCQAHGYFCQLIDGLEYLHSQGIVHKDIKPGNLLLTTGGTLKISDLGVAEALHPFIADDTCRTSQGSPAFQPPEIANGLDTFSGFKVDIWSAGVTLYNITTGLYPFEGDNIYKLFENIGKGSYAIPGDCGPPLSDLLKGMLEYEPAKRFSIRQIRQHSWFRKKHPPAEAPVPIPPSPDTKDRWRSMTVVPYLEDLHGADEDEDLFDIEDDIIYTQDFTVPGQVPEEEASHNGQRRGLPKAVCMNGTEAAQLSTKSRAEGRAPNPARKACSASSKIRRLSACKQQ [A205I], with 1.47 ± 0.18.
On to MEVVDPQQLGMFTEGELMSVGMDTFIHRIDSTEVIYQPRRKRAKLIGKYLMGDLLGEGSYGKVKEVLDSETLCRRAVKILKKKKLRRIPNGEANVKKEIQLLRRLRHKNVIQLVDVLYNEEKQKMYMVMEYCVCGMQEMLDSVPEKRFPVCQAHGYFCQLIDGLEYLHSQGIVHKDIKPGNLLLTTGGTLKISDLGVAEALHPFHADDTCRTSQGSPAFQPPEIANGLDTFSGFKVDIWSAGVTLYNITTGLYPFEGDNIYKLFENIGKGSYAIPGDCGPPLSDLLKGMLEYEPAKRFSIRQIRQHSWFRKKHPPAEAPVPIPPSPDTKDRWRSMTVVPYLEDLHGADEDEDLFDIEDDIIYTQDFTVPGQVPEEEASHNGQRRGLPKAVCMNGTEAAQLSTKSRAEGRAPNPARKACSASSKIRRLSACKQQ [A205H], for which the STK11 functional score was found to be 1.33 ± 0.13.
Then MEVVDPQQLGMFTEGELMSVGMDTFIHRIDSTEVIYQPRRKRAKLIGKYLMGDLLGEGSYGKVKEVLDSETLCRRAVKILKKKKLRRIPNGEANVKKEIQLLRRLRHKNVIQLVDVLYNEEKQKMYMVMEYCVCGMQEMLDSVPEKRFPVCQAHGYFCQLIDGLEYLHSQGIVHKDIKPGNLLLTTGGTLKISDLGVAEALHPFLADDTCRTSQGSPAFQPPEIANGLDTFSGFKVDIWSAGVTLYNITTGLYPFEGDNIYKLFENIGKGSYAIPGDCGPPLSDLLKGMLEYEPAKRFSIRQIRQHSWFRKKHPPAEAPVPIPPSPDTKDRWRSMTVVPYLEDLHGADEDEDLFDIEDDIIYTQDFTVPGQVPEEEASHNGQRRGLPKAVCMNGTEAAQLSTKSRAEGRAPNPARKACSASSKIRRLSACKQQ [A205L], with 0.703 ± 0.24.
